From the supplement of paper PMC9112550, “Optimization of the antimicrobial peptide Bac7 by deep mutational scanning” (BMC Biology, 2022)

System: Escherichia coli TOP10
Experiment: shrunken log2 fold change of peptide-encoding DNA abundance (4.5 h post-induction vs induction); higher = less antimicrobial activity (less host growth inhibition)
Conditions: time post-induction: 4.5 h; library: site-saturation at positions 5, 18, 19, 20
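Further: peptides expressed intracellularly from a pBAD plasmid library in pooled LB shake-flask culture, induced with 0.3% L-arabinose, DNA abundance read by NGS, three biological replicates, DESeq2 with apeglm shrinkage.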

Sequence | shrunken log2 fold change
RRIRVRPPRLPRPRPRPEPPPRP | 0.664
RRIRVRPPRLPRPRPRPEQAPRP | 0.358
RRIRVRPPRLPRPRPRPEQIPRP | -0.0137
RRIRVRPPRLPRPRPRPESIPRP | -0.149
RRIRVRPPRLPRPRPRPESYPRP | 0.45
RRIRVRPPRLPRPRPRPETDPRP | 0.023
RRIRVRPPRLPRPRPRPETKPRP | 0.242
RRIRVRPPRLPRPRPRPEWLPRP | 0.0685
RRIRVRPPRLPRPRPRPEYWPRP | -0.161
RRIRVRPPRLPRPRPRPFCHPRP | -0.264
RRIRVRPPRLPRPRPRPFCIPRP | -0.447
RRIRVRPPRLPRPRPRPFCVPRP | -0.0102
RRIRVRPPRLPRPRPRPFDAPRP | 0.0132
RRIRVRPPRLPRPRPRPFDEPRP | -0.242
RRIRVRPPRLPRPRPRPFDSPRP | -0.204
RRIRVRPPRLPRPRPRPFEVPRP | -0.164
RRIRVRPPRLPRPRPRPFFAPRP | 0.238
RRIRVRPPRLPRPRPRPFFSPRP | -0.371
RRIRVRPPRLPRPRPRPFGCPRP | -0.19
RRIRVRPPRLPRPRPRPFHAPRP | -0.229
RRIRVRPPRLPRPRPRPFHQPRP | 0.032
RRIRVRPPRLPRPRPRPFHRPRP | -0.0437
RRIRVRPPRLPRPRPRPFIPPRP | -0.535
RRIRVRPPRLPRPRPRPFKQPRP | -0.0195
RRIRVRPPRLPRPRPRPFLCPRP | -0.0159

Sequence | shrunken log2 fold change
RRIRVRPPRLPRPRPRPFMQPRP | -0.285
RRIRVRPPRLPRPRPRPFMSPRP | 0.0334
RRIRVRPPRLPRPRPRPFNWPRP | -0.498
RRIRVRPPRLPRPRPRPFPCPRP | -0.00113
RRIRVRPPRLPRPRPRPFPQPRP | -0.312
RRIRVRPPRLPRPRPRPFQDPRP | -0.0723
RRIRVRPPRLPRPRPRPFRVPRP | -0.266
RRIRVRPPRLPRPRPRPFSRPRP | -0.0787
RRIRVRPPRLPRPRPRPFSYPRP | -0.012
RRIRVRPPRLPRPRPRPFTDPRP | 0.0809
RRIRVRPPRLPRPRPRPFTKPRP | -0.79
RRIRVRPPRLPRPRPRPFYMPRP | -0.136
RRIRVRPPRLPRPRPRPFYVPRP | 1.07
RRIRVRPPRLPRPRPRPFYYPRP | -0.556
RRIRVRPPRLPRPRPRPGALPRP | 0.0362
RRIRVRPPRLPRPRPRPGAWPRP | 0.323
RRIRVRPPRLPRPRPRPGCSPRP | 0.186
RRIRVRPPRLPRPRPRPGDQPRP | 0.0324
RRIRVRPPRLPRPRPRPGDRPRP | 0.365
RRIRVRPPRLPRPRPRPGERPRP | 0.674
RRIRVRPPRLPRPRPRPGFFPRP | 0.0758
RRIRVRPPRLPRPRPRPGGYPRP | 0.0682
RRIRVRPPRLPRPRPRPGIAPRP | 0.0106
RRIRVRPPRLPRPRPRPGIDPRP | -0.143
RRIRVRPPRLPRPRPRPGIPPRP | -0.103

Sequence | shrunken log2 fold change
RRIRVRPPRLPRPRPRPGKGPRP | 0.0187
RRIRVRPPRLPRPRPRPGKMPRP | -0.0672
RRIRVRPPRLPRPRPRPGKWPRP | -0.141
RRIRVRPPRLPRPRPRPGLGPRP | 0.134
RRIRVRPPRLPRPRPRPGLHPRP | -0.0936
RRIRVRPPRLPRPRPRPGLTPRP | -0.011
RRIRVRPPRLPRPRPRPGMLPRP | -0.333
RRIRVRPPRLPRPRPRPGMNPRP | -0.145
RRIRVRPPRLPRPRPRPGNFPRP | -0.131
RRIRVRPPRLPRPRPRPGNNPRP | -0.249
RRIRVRPPRLPRPRPRPGNRPRP | -0.0858
RRIRVRPPRLPRPRPRPGWKPRP | 0.169
RRIRVRPPRLPRPRPRPGYAPRP | 0.0532
RRIRVRPPRLPRPRPRPHARPRP | 0.0538
RRIRVRPPRLPRPRPRPHCKPRP | -0.299
RRIRVRPPRLPRPRPRPHDIPRP | 0.0663
RRIRVRPPRLPRPRPRPHEAPRP | 0.145
RRIRVRPPRLPRPRPRPHERPRP | -0.13
RRIRVRPPRLPRPRPRPHFEPRP | 0.193
RRIRVRPPRLPRPRPRPHGMPRP | -0.582
RRIRVRPPRLPRPRPRPHHFPRP | -0.114
RRIRVRPPRLPRPRPRPHICPRP | -0.18
RRIRVRPPRLPRPRPRPHLPPRP | -0.0222
RRIRVRPPRLPRPRPRPHMLPRP | -0.311
RRIRVRPPRLPRPRPRPHNEPRP | -0.811
